From US20100136005A1

Legend:
human CD18 (human) = human CD18 (human) (UniProt P05107); assay: cell-based or functional assay
rhesus CD18 (rhesus) = rhesus CD18 (rhesus) (UniProt H9Z8N5); assay: cell-based or functional assay

human CD18 (human), sequence (P05107 23-769): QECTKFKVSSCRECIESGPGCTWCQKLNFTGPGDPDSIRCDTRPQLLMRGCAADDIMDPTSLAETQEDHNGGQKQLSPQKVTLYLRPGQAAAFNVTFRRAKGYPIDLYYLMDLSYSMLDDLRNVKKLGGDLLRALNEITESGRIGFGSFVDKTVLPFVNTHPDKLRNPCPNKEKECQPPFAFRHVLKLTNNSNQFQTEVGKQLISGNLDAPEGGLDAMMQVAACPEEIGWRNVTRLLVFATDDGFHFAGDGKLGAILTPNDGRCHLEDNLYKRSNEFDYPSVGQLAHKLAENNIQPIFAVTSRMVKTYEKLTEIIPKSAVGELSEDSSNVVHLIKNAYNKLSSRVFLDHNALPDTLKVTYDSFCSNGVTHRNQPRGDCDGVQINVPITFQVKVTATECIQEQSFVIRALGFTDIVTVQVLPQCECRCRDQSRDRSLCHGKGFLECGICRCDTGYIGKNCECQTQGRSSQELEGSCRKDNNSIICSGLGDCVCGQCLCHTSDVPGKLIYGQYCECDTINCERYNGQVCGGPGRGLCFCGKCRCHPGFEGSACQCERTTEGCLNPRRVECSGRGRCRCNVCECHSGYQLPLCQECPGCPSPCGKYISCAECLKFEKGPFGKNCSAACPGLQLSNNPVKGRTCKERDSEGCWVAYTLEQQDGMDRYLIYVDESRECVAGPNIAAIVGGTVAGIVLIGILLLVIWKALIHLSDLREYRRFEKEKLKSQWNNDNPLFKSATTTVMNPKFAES

In the case of murine anti-human CD18 antibody MHM23, the IC50 Value (nM), Rh/HuCD11a:HuK cell adhesion (human CD18 (human)) is reported as 1.4 nM, the IC50 Value (nM), RhLy:HuICAM cell adhesion (rhesus CD18 (rhesus)) is reported as 1.2 nM and the IC50 Value (nM), RhLy:HuK cell adhesion (rhesus CD18 (rhesus)) is reported as 1.6 nM. For the same substance, the IC50 Value (nM), rhesus mixed lymphocyte response (rhesus CD18 (rhesus)) was 30.4 nM.
